In this experiment the target is Protein encoded by the control plasmid pGBKT7-53. Briefly: two-hybrid.

This passage reports α-gal activity, fold over baseline (fold over baseline) results from publication PMC2736913.

Where only a bound is given, the exact number is not on record here.

Consider “Protein encoded by the control plasmid pGADT7-T (domain or fragment)”, for which the α-gal activity, fold over baseline (fold over baseline) was over 35000.
